This is an account of results in patent publication US20240409617A1 (published 2024).

Bounds are passed on as bounds.

To fix the notation:
B1: Ab 21 (scFv, V domains shown)
VH: QVQLVQSGGGLVQPGGSLRLSCATSGFTFDDYAMHWVRQAPGKGLEWVSGISWNSGSIGYVDSVKGRFTISRDNRNNKVYLQMNNLRAEDTAVYYCARDWWGSIDHWGLGTLVTVSS
VL: QSALTQPRSVSGSPGQSVTISCTGTSSDVGGYDYVSWYQQHPGKAPKLIIYDVSKRPSGVPDRFSGSKSGNTASLTVSGLQAEDEADYYCSSYTSSSPVVFGGGTKLTVL
B2: Ab 16 (scFv, V domains shown)
VH: QVQLVQSGGGVVQPGRSLRLSCAASGFTFSNYGMHWVRQAPGKGLEWVALIWERGSKKDYADSVKGRFTVSRDNSKNTLYLQMNSLRPEDTAVYFCAREGISMTGAEYFQHWGQGTLVTVSS
VL: QSVLTQPPSVSGSPGQRVTMSCTGSSSNIGAGYDVHWYQQVPGAAPRLLIYGTNNRPSGVPDRFSGSKSGTSASLTITGLQAEDEADYYCQSYDNSLTDPYVFGTGTKVTVL
B3: Ab 18 (scFv, V domains shown)
VH: EVQLVQSGGGVVQPGRSLRVSCAASGFSFSRYGMHWVRQAPGKGLEWVAFIRHDGSKKYYADSVEGRFTISRDNSRNTVSLEMNSLRGEDTAVYYCAKDGRLEAALDDWGQGTLVTVSS
VL: NFMLTQPHSMSGSAGKTVTVSCIRSSGSIANNFVQWYQQRPGSAPTTVIYEDNQRPSGVPDRFSGSIDSSSNSASLTISGLKTEDEADYYCQSYDSSNLVFGGGTRLTVL
B4: Ab 23 (Fc fusion)
VH: EVQLVQSGAEVKKPGSSVKVSCRSSGGTFSTYGITWVRQAPGQGLEWMGRIIPSLGIPNYAQKFQGRVTITADTSVSTAWMELSSLESDDTAIYYCARENIDLATNDFWGQGTLVTVSS
VL: QSALTQPPSASGSPGQSVTISCTGTSRDIGAYGYVSWYQQVPGKAPKLIIYEVRNRPSGVSSRFSGSKSGNTASLTISGLQAEDEADYYCSSYTSSSTLDVVFGGGTKLTVL
B5: Ab 27 (Fc fusion)
VH: QVQLVQSGTEVKKPGASVKVSCKASGYSFTGSHLHWVRQAPGQGLEWMGWINPDSGVINYAQKFQGRVTLTRDTSISTAYMELSGLRSDDTAVYYCARDKAIGYVWALDYWGQGTLVTVSS
VL: QSALTQPPSVSGSPGQSVTISCTGTSSDVGTYNRVSWYQQPPGKAPKLMIYEVSNRPSGVSNRFSGSKSGNTASLTISGLQAEDEADYYCSSYTRTFTYVFGTGTKVTVL
B6: Ab 15 (Fc fusion)
VH: QVQLVQSGGGLVKPGRSLRLSCTASGFTFGDYAMSWFRQAPGKGLEWVGFIRSKAYGGTTGYAASVKGRFTISRDDSKSIAYLQMNSLKTEDTAVYYCTTADDDMDVWGKGTTVTVSS
VL: NFMLTQPHSVSESPGKTVTISCTRSSGTIASNYVQWYQQRPGSAPTTVIYEDNQRPSGVPDRFSGSIDRSSNSASLTISGLTPDDEADYYCQSYDTSNHYVFGTGTKVTVL
B7: Ab 25 (Fc fusion)
VH: QVQLVQSGGGLVQPGGSLRLSCAASGFTFSSYWMSWVRQAPGKGLEWVANIKQDGSEKYYVDSVKGRFTISRDNAKNSLYLQMNSLRAEDTAVYYCARGFYYYGAFDIWGQGTTVTVSS
VL: NFMLTQPHSVSESPGKTVTISCTGSSGSIASNYVQWYQQRPGSAPTTVIYEDNQRPSGVPDRFSGSIGSSSNSASLTISGLKTEDEADYYCQSYDSSNHWVFGGGTKLTVL
B8: Ab 20 (scFv, V domains shown)
VH: QVQLVQSGGGSVKPGGSLRLSCAASGYRLSDYYMHWVRQAPGKGLEWVANIKQDGSEKYYVDSVKGRFTISRDNAKNSLYLQMNSLRAEDTAVYYCARVRGWSRGYFDYWGQGTLVTVSS
VL: NFMLTQPHSVSESPGKTVTISCTGSSGSIASNYVQWYQQRPGSAPTTVIYEDNQRPSGVPDRFSGSIDSSSNSASLLISGLKTEDEADYYCQSYDSSNHWVFGGGTKLTVL
B9: Ab 13 (scFv, V domains shown)
VH: QVTLKESGPKLVKPTQTLTLTCTFSGFSLSTSGVGVGWIRQPPGKALEWLALIYWDDDKRYSPSLKSRLTIAKDTSKYQVVLTMTNMDPVDTATYYCARISGSGYFYPFDIWGQGTMVTVSA
VL: NFMLTQPHSVSESPGKTVTISCTRSSGSIASNYVQWYQQRPGSAPTTVIYEDNQRPSGVPDRFSGSIDSSSNSASLTISGLKTEDEADYYCQSYDSSNLWVFGGGTKLTVL
B10: Ab 17 (scFv, V domains shown)
VH: QVQLVQSGGGVVQPGRSLRLSCAASGFTFDDYAMHWVRQVPGKGLEWVSGIDWNSGVIGYADSVKGRFTISRDNVKNSLYLQMNSLRTEDSALYYCAKDIGPGGSGSYYAFDIWGQGTTVTVSS
VL: QSALTQPASVSGSPGQSITISCTGTSSDVGGSKYVSWYQQHPGKAPKVMIYDVTKRPSGVPDRFSGSKSGNTASLTISGLQAEDEADYYCAAWDDSLNGVVFGGGTKLTVL

This experiment has as its target RBD-biotin. Briefly: BLI. (BLI is a label-free optical method that tracks binding on a fibre tip over time.)
Broadly, the Kd is the concentration at which binding is half-saturated. In turn, B1 registered a Kd of 1.48 nM.
In the case of B2 it was 0.959 nM.
For the molecule B3, binding was put at a Kd of 2.31 nM.
In the case of B4, the Kd is under 0.001 nM.
Molecule B5 gave a Kd of 0.906 nM.
On to B6, for which the Kd stood at 6.61 nM.
For the molecule B7, binding was characterised by a dissociation constant (Kd) of 0.223 nM.
Then B8, with 1.9 nM; and B9, with 0.922 nM; and B10, with 0.882 nM.
